Measured values published in article PMC4367809 (2015).

Tests used:
[1] = molecular target: actin filament pointed end (Oryctolagus cuniculus, UniProt P68135); experiment: pointed end elongation assay
actin (ATP-actin:GS1) = actin (ATP-actin:GS1) (Oryctolagus cuniculus, UniProt P68135); experiment: ITC

Row | Binder | Kd [1] | Kd (actin (ATP-actin:GS1))
1 | Tropomodulin-1 (protein, filament seeds capped at barbed end by capping protein) MSYRRELEKYRDLDEDEILGALTEEELRTLENELDELDPDNALLPAGLRQKDQTTKAPTGPFKREELLDHLEKQAKEFKDREDLVPYTGEKRGKVWVPKQKPLDPVLESVTLEPELEEALANASDAELCDIAAILGMHTLMSNQQYYQALSSSSIMNKEGLNSVIKPTQYKPVPDEEPNSTDVEETLERIKNNDPKLEEVNLNNIRNIPIPTLKAYAEALKENSYVKKFSIVGTRSNDPVAYALAEMLKENKVLKTLNVESNFISGAGILRLVEALPYNTSLVEMKIDNQSQPLGNKVEMEIVSMLEKNATLLKFGYHFTQQGPRLRASNAMMNNNDLVRKRRLADLTGPIIPKCRSGV | 0.108 µM | 
2 | Tropomodulin-1 ABS2 160-349 (protein, actin in complex with gelsolin segment 1, ATP) GLNSVIKPTQYKPVPDEEPNSTDVEETLERIKNNDPKLEEVNLNNIRNIPIPTLKAYAEALKENSYVKKFSIVGTRSNDPVAYALAEMLKENKVLKTLNVESNFISGAGILRLVEALPYNTSLVEMKIDNQSQPLGNKVEMEIVSMLEKNATLLKFGYHFTQQGPRLRASNAMMNNNDLVRKRRLADLTG |  | 10.5 µM

Results, then the binder that gave them:

Row | Kd [1] | Kd (actin (ATP-actin:GS1)) | Binder
3 | 0.028 µM |  | Tropomodulin-1 (protein, 1 uM tropomyosin, filament seeds capped at barbed end by capping protein) MSYRRELEKYRDLDEDEILGALTEEELRTLENELDELDPDNALLPAGLRQKDQTTKAPTGPFKREELLDHLEKQAKEFKDREDLVPYTGEKRGKVWVPKQKPLDPVLESVTLEPELEEALANASDAELCDIAAILGMHTLMSNQQYYQALSSSSIMNKEGLNSVIKPTQYKPVPDEEPNSTDVEETLERIKNNDPKLEEVNLNNIRNIPIPTLKAYAEALKENSYVKKFSIVGTRSNDPVAYALAEMLKENKVLKTLNVESNFISGAGILRLVEALPYNTSLVEMKIDNQSQPLGNKVEMEIVSMLEKNATLLKFGYHFTQQGPRLRASNAMMNNNDLVRKRRLADLTGPIIPKCRSGV
4 |  | 7.5 µM | Tropomodulin-1 ABS1 50-101 (protein, actin in complex with gelsolin segment 1, ATP) QKDQTTKAPTGPFKREELLDHLEKQAKEFKDREDLVPYTGEKRGKVWVPKQK
